According to paper doi:10.1101/2025.07.02.662585 (bioRxiv, 2025):

T1: Avo3 (yeast (endogenous in yeast cells), UniProt P40061 1-1430)
T1 sequence: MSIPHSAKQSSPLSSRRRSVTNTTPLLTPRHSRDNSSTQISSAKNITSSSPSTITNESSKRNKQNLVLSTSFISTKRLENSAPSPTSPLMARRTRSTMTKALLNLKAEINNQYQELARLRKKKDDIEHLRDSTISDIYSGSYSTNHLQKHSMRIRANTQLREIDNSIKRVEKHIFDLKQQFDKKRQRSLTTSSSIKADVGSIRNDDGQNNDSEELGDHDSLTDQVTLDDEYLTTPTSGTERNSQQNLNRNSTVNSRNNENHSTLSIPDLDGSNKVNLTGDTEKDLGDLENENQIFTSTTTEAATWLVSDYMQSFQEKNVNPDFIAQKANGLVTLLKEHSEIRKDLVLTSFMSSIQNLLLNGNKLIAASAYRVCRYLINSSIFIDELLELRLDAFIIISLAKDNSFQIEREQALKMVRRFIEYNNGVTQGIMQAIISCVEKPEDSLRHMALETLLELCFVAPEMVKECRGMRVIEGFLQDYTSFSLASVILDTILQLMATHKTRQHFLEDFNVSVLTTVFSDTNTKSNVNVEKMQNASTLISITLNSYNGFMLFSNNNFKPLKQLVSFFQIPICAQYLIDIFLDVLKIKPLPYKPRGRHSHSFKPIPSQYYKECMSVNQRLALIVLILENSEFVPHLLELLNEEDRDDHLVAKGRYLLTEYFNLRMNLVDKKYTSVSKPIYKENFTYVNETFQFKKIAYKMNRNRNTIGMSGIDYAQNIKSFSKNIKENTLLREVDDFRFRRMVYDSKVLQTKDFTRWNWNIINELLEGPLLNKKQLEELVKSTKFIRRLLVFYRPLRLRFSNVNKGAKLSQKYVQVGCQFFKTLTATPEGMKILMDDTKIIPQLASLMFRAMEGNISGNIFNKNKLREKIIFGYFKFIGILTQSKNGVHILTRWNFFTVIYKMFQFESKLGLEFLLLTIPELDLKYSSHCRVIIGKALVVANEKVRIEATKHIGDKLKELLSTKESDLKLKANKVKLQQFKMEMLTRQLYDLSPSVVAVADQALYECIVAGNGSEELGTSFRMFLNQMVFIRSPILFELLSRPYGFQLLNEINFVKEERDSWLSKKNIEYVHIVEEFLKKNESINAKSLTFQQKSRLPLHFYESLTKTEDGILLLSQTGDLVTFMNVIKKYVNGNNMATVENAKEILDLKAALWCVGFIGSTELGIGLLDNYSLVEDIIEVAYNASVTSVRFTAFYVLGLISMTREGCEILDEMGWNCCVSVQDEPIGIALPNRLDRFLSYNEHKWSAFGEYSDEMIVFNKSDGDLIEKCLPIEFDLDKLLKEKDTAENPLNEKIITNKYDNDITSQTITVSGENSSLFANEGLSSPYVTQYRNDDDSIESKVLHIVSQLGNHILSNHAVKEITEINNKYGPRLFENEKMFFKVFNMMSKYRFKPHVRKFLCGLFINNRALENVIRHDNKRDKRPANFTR

B1: Avo2 (natural protein)
chain: MLKEPSVRLREAIIEGNLLIVKRLLRRNPDLLTNIDSENGWSSLHYASYHGRYLICVYLIQLGHDKHELIKTFKGNTCVHLALMKGHEQTLHLLLQQFPRFINHRGENGRAPIHIACMNDYYQCLSLLIGVGADLWVMDTNGDTPLHVCLEYGSISCMKMLLNEGEVSLDDNVRDKGNWKPIDVAQTFEVGNIYSKVLKEVKKKGPPLGAGKKPSSFRTPILNAKATFEDGPSPVLSMNSPYSLYSNNSPLPVLPRRISTHTTSGNGGNRRSSITNPVFNPRKPTLSTDSFSSSSNSSSRLRVNSINVKTPVGVSPKKELVSESVRHSATPTSPHNNIALINRYLLPNKSNDNVRGDSQTATINDDGGGGNGGDATIGMGLRKDPDDENENKYKIKVNNGEPRRRVSLLNIPISKLRNSNNTRAED
B2: Avo1 (natural protein)
chain: MDTVTVLNELRAQFLRVCPEKDQMKRIIKPYIPVDEFNTEQCLDSSIRELYMNSDGVSLLPELESPPVSKDFMENYASLGKMRIMRENEGQKGKANQNLIGAEKTERDEEETRNLQDKSAKNTLIVEENGTLRYNPLNSSASNSLLNDDDHTSGKHHKTSSKEDSYLNSSMEMQKKSSKRSSLPFVRIFKSRRDHSNTSGNKNVMNTTNTRAKSSTLHPPGARHNKKGSKFDMNFDFDENLEEEDDDDDDDEEGDDIHSQFFQLDDDFDAKGSGASPAHKGINGMSNNKNNTYTNNRNSISILDDRESSNGNIGSASRLKSHFPTSQKGKIFLTDNKNDGQKSDSLNANKGIHGDGSSASGNGSVSRDGLTETESNNISDMESYINEKDLDDLNFDTVTSNINKTVSDLGGHESTNDGTAVMNRDSKDSRSNSNEFNAQNRDRITPGSSYGKSLLGSEYSEERYSNNDSSTMESGEMSLDSDMQTNTIPSHSIPMSMQKYGIYHGDDDSTLNNVFDKAVLTMNSSRHPKERRDTVISGKEPTSLTSSNRKFSVSSNLTSTRSPLLRGHGRTSSTASSEHMKAPKVSDSVLHRARKSTLTLKQDHSQPSVPSSVHKSSKEGNILIEKTTDYLVSKPKASQLSNMFNKKKKRTNTNSVDVLEYFSFVCGDKVPNYESMGLEIYIQASKKYKRNSFTTKVRKSSTIFEVIGFALFLYSTEKKPDNFEEDGLTVEDISNPNNFSLKIVDEDGEPFEDNFGKLDRKSTIQSISDSEVVLCKVDDAEKSQNEIETPLPFETGGGLMDASTLDANSSHDTTDGTINQLSFYKPIIGNEDDIDKTNGSKIIDVTVYLYPNVNPKFNYTTISVLVTSHINDILVKYCKMKNMDPNEYALKVLGKNYILDLNDTVLRLDGINKVELISKKDARELHLEKMKPDLKKPVLPTIQSNDLTPLTLEPLNSYLKADAGGAVAAIPENTKVTSKAKKISTKYKLGLAKQHSSSSVASGSVSTAGGLANGNGFFKNKNSSKSSLHGTLQFHNINRSQSTMEHTPDTPNGVGDNFQDLFTGAYHKYKVWRRQQMSFINKHERTLAIDGDYIYIVPPEGRIHWHDNVKTKSLHISQVVLVKKSKRVPEHFKIFVRREGQDDIKRYYFEAVSGQECTEIVTRLQNLLSAYRMNHK
B3: Lst8 (natural protein)
chain: MSVILVSAGYDHTIRFWEALTGVCSRTIQHSDSQVNRLEITNDKKLLATAGHQNVRLYDIRTTNPNPVASFEGHRGNVTSVSFQQDNRWMVTSSEDGTIKVWDVRSPSIPRNYKHNAPVNEVVIHPNQGELISCDRDGNIRIWDLGENQCTHQLTPEDDTSLQSLSMASDGSMLAAANTKGNCYVWEMPNHTDASHLKPVTKFRAHSTYITRILLSSDVKHLATCSADHTARVWSIDDDFKLETTLDGHQRWVWDCAFSADSAYLVTASSDHYVRLWDLSTREIVRQYGGHHKGAVCVALNDV
B4: Bit61 (natural protein)
chain: MTAEDILLRERTSTTTQRPVNSEQYLNVQLATAPVKNFQTTSEISRQTLVDTSNDDVYSIKNLKGSRNPISPSVSNVGFQSIFHTVDHPRSKVSVASNHSLRSNDNASAATSKSGSSQIGESHSVDTVECSNNLSKKLSSDAISITQKSLHSTPSGRYMKGKASGFFNRRNRAHTTISSDPASFLTDSSTLHNSSHSFRNVIKNFFQNKSHRHIGQDAIEPAIPNSLSKFLHSSYGRHKSPSQFIHTNAGQLVDSGTSVYSLNVNPSGVNPNTIVEDPLSGTDPASPNPVSMLHDLLRNLPSLEANYKHFNSQELTTLTNNIWNIFCSNVAELFRTQRIWKLRAKIENFNEVLEFYCILKTDPRVTHSGMNRIISDLKEFLVSSLYNLENQIVFNYSNEDTINNALKRLGVIWRIFYQEVYYDLAAVLLPLDQSIREDGNSTVLKSGNESRTHINGNYSIGFLLLMCFRDSIVLPCYENFVNSNDGISKSFQLYIFNQEEESNVTETDKLTLLQCFGILSTIQSNDRNQRIIEELLAGIRMSI

How the values were obtained:
Avo3 = molecular target: T1, Avo3; assay: cryo-EM structure
Avo1 = molecular target: B2; assay: cryo-EM structure

| Binder | binding result (Avo3) | binding result (Avo1) |
| --- | --- | --- |
| B1 | binds |  |
| B2 | binds |  |
| B3 |  | binds |
| B4 | binds |  |
